From article PMC8234197

Columns and labels:
[1] = biological target: MsuD^ΔC–16 (MsuD with the last 16 residues of the C terminus deleted) (Pseudomonas fluorescens)
[2] = biological target: MsuD^ΔC–16 (MsuD with the last 16 residues of the C terminus deleted) (Pseudomonas fluorescens); assay: SEC; analytical gel filtration, Enrich SEC 650 10 × 300 column, 4 °C, 50 mM sodium phosphate, 150 mM NaCl, pH 7.2, with high-molecular-weight standards
[3] = biological target: alkanesulfonate monooxygenase MsuD from Pseudomonas fluorescens (wildtype) (Pseudomonas fluorescens)
[4] = biological target: alkanesulfonate monooxygenase MsuD from Pseudomonas fluorescens (wildtype) (Pseudomonas fluorescens); assay: SEC; analytical gel filtration, Enrich SEC 650 10 × 300 column, 4 °C, 50 mM sodium phosphate, 150 mM NaCl, pH 7.2, with high-molecular-weight standards
[5] = biological target: alkanesulfonate monooxygenase MsuD from Pseudomonas fluorescens (wildtype) (Pseudomonas fluorescens); assay: crystal structure; cocrystal with FMN and MS− (P6_1, four chains per asymmetric unit); unliganded and FMN- or FMN/MS−-soaked crystals (P2_1, two tetramers per asymmetric unit)

sulfite formation from MS− in a coupled reaction with MsuE (DTNB assay) (µmol/min/µmol enzyme) [1] | stoichiometry N [2] | sulfite formation from MS− in a coupled reaction with MsuE (DTNB assay), wildtype under the conditions of the MsuD^ΔC–16 test (µmol/min/µmol enzyme) [3] | stoichiometry N [4] | stoichiometry N [5] | Substance
0.45 | 2 |  |  |  | MsuD^ΔC–16 (MsuD with the last 16 residues of the C terminus deleted) (domain or fragment)
 |  | 5.7 | 4 | 4 | alkanesulfonate monooxygenase MsuD from Pseudomonas fluorescens (wildtype) (enzyme)
